From paper PMC8534003 (Cancers, 2021)
Where no end group is shown, it is not given here. The star is where a group is joined. Biotin = O=C1N[C@H]2[C@H](CS[C@H]2CCCCC(=O)*)N1

Target: T1, human recombinant FGF-2 (human, UniProt P09038 143-288)
T1 construct: basic fibroblast growth factor (FGF-2), human recombinant; also called basic fibroblast growth factor; source: bought: R&D Systems
Experiment: grating-coupled interferometry; Creoptix WAVEdelta, 4PCP-STA chip; biotinylated CXCL9(74-103) captured on streptavidin; FGF-2 as analyte 4.53 nM-1.10 µM in duplicate; 25 °C; PBS with 30 mM NaCl, 15 mM L-arginine, 0.015% Tween 20, 0.05 mg/mL BSA, pH 7.4; 1:1 binding model with bulk correction
Settings: both partners purified

T1 sequence (P09038 143-288): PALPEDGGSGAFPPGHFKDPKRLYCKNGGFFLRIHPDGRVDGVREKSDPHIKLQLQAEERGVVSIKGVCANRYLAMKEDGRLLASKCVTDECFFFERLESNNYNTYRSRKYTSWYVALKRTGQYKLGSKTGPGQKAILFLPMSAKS

Kd: 100 nM
B1: biotinylated CXCL9(74-103) (peptide)
peptide: Biotin-KKKQKNGKKHQKKKVLKVRKSQRSRQKKTT
notes: Site-specifically biotinylated at the NH2-terminus with biotin-p-nitrophenyl ester; source: synthetic peptide (Fmoc solid-phase synthesis)
